Experimental data as given in patent EP4688000A1 (dated 2026).

How the values were obtained:
[1] = biological target: T1, human integrin α6β1 on CHO-S cells (CHO-S-human ITGA6B1-#24) (human, UniProt P05556 21-798; P23229 24-1130); test: flow cytometry on CHO-S-human ITGA6B1-#24 cells
T1 construct: whole, on cells; also called human ITGB1

[2] = biological target: T2, mouse integrin α6β4 on cells (CHO-S-murine ITGA6B4-#12; 4T1) (mouse, UniProt A2A863 29-1818; Q61739 24-1091); test: flow cytometry on 4T1 and CHO-S-murine ITGA6B4-#12 cells
T2 construct: whole, on cells; also called mouse ITGB4; CHO-S-mouse ITGB4
T2 sequence (A2A863 29-1818, chain 1 of 2): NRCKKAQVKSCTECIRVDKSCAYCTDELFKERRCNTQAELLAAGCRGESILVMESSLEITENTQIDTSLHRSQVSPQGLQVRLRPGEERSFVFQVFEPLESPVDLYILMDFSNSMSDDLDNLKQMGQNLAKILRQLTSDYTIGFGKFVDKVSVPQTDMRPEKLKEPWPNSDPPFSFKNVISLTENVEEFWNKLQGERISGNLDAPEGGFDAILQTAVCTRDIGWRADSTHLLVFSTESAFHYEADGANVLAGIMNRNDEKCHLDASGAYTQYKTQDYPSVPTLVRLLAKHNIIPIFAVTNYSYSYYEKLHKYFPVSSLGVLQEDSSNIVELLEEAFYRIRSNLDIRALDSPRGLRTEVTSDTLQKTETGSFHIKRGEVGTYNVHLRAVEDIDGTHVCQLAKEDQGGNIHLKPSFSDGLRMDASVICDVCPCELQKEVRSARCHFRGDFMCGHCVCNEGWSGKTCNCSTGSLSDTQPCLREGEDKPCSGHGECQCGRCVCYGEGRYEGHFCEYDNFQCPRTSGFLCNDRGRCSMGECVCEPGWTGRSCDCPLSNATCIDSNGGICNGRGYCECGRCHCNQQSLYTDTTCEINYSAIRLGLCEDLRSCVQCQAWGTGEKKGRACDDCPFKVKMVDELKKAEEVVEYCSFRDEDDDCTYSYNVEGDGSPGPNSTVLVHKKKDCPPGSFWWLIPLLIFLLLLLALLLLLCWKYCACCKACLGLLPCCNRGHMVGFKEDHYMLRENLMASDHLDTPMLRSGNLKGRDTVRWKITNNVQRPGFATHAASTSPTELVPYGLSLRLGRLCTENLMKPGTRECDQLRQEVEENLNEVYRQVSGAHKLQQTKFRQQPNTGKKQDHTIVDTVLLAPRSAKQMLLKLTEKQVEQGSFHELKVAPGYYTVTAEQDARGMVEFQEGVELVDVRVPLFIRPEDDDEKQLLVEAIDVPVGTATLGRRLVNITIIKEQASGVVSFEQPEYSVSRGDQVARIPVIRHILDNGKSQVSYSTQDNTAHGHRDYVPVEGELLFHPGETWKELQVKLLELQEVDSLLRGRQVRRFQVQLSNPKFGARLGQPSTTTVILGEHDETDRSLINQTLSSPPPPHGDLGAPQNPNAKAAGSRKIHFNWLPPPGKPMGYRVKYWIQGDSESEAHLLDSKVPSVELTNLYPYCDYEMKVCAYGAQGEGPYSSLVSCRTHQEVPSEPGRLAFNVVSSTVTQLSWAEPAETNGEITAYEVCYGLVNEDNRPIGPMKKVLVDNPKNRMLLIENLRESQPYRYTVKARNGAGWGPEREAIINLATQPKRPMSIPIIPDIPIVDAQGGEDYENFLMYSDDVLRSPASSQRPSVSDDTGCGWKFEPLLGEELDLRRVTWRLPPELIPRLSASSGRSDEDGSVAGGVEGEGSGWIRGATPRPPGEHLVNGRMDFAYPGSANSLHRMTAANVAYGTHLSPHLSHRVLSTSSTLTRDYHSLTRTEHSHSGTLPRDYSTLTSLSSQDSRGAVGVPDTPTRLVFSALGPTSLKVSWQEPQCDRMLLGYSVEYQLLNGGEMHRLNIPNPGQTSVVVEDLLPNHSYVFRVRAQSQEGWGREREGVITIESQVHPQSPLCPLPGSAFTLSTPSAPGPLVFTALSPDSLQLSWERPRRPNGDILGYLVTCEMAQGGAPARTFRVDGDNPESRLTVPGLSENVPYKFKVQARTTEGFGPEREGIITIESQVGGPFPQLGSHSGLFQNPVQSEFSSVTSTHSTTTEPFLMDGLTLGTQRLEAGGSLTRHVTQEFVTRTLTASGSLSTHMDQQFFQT
T2 sequence (Q61739 24-1091, chain 2 of 2): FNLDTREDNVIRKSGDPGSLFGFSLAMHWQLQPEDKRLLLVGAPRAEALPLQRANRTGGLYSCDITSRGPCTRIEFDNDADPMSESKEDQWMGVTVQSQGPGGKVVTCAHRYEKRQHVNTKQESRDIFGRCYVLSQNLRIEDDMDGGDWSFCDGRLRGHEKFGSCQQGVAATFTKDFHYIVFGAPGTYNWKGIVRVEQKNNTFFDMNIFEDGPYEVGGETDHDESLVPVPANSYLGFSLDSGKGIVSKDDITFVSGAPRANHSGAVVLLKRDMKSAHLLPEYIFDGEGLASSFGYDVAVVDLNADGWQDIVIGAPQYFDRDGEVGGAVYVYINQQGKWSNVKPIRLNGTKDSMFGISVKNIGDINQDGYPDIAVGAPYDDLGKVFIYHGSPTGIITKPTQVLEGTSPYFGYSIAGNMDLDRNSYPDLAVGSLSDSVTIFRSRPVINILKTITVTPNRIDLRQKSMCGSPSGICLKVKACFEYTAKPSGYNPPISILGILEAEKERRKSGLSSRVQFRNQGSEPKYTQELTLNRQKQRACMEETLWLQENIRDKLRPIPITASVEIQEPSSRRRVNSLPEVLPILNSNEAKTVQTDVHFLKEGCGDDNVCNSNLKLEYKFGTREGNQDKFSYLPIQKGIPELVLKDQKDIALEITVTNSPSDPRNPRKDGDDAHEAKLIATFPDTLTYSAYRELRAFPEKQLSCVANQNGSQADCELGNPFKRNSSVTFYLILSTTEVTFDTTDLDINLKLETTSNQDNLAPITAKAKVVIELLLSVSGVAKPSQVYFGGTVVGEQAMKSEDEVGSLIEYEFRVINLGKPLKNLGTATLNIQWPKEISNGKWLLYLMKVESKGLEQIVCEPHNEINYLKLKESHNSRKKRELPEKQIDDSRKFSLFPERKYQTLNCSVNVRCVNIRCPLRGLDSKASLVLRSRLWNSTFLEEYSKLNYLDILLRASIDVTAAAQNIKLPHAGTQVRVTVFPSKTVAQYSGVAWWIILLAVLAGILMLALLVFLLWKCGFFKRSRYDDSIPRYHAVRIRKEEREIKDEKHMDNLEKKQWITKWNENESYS

T1 sequence (P05556 21-798, chain 1 of 2): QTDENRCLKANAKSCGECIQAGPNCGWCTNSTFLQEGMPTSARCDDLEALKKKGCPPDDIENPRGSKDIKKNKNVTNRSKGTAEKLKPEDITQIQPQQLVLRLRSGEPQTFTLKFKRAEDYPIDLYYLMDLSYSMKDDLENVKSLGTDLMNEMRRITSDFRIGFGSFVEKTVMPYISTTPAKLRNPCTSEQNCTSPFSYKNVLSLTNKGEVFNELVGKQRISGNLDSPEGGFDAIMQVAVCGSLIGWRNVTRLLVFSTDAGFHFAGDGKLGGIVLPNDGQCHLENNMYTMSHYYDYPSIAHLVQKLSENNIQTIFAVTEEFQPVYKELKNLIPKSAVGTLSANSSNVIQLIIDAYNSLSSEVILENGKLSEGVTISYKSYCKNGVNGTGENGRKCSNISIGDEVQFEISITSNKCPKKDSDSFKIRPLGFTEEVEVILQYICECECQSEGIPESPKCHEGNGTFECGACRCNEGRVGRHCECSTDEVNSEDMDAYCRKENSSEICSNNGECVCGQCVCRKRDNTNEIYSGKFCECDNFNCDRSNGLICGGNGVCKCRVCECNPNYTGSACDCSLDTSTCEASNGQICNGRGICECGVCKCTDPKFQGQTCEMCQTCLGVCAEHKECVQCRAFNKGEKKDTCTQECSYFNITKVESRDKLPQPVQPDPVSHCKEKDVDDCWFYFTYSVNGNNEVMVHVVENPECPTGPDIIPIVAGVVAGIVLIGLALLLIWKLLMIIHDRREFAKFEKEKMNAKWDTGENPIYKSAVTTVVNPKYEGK
T1 sequence (P23229 24-1130, chain 2 of 2): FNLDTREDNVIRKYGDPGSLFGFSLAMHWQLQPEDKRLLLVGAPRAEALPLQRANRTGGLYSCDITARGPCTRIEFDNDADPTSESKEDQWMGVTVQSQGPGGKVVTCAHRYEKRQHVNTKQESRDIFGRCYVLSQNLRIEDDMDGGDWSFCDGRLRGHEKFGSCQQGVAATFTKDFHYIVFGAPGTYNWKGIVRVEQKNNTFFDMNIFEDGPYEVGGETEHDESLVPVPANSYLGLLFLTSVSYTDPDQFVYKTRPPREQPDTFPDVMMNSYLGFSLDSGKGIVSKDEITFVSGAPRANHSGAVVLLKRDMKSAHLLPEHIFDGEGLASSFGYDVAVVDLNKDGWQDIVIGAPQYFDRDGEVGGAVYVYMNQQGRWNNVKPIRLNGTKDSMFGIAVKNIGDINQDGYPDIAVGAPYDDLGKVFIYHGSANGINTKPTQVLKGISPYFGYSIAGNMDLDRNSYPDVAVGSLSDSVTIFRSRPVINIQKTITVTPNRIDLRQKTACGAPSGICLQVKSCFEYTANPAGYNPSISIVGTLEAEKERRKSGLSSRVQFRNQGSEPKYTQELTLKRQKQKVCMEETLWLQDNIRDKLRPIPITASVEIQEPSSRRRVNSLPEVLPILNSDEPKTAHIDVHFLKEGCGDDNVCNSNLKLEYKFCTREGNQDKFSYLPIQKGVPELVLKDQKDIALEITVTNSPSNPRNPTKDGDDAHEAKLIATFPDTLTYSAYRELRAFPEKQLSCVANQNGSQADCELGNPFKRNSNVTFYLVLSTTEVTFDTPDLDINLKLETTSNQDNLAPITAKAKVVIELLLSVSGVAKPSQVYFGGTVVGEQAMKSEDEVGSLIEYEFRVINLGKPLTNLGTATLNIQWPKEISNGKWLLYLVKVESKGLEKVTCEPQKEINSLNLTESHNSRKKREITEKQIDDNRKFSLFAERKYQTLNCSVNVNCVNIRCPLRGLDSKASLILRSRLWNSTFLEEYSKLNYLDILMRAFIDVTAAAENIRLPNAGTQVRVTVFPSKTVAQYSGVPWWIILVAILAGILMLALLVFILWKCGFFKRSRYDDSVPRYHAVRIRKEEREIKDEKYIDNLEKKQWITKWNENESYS

B1: anti-ITGB4 antibody 008 (parental clone) (antibody, V domains shown)
VH: QVQLKQSGPSLVQPSQSLSITCTVSGFSLTSYGVHWFRQSPGKGLEWLGVIWRGGNTDYNAAFMSRLSITKDNSKSQVFFKMNSLQPDDTAIYYCVKNYRFGGSAYWGQGTLVTVSA
VL: DIQMTQTTSSLSASLGDRVTISCRASQDISNHLNWYQQKPDGTVKLLIYYTSTLHSGVPSRFSGSGSGTDYSLTISNLEPEDIATYYCQQDLNLPWTFGGGTKLEIK
notes: In the assays it was captured on anti-human IgG Fc sensors and detected with anti-human IgG, so the tested form carries a human Fc; also called 008 clone
B1: no binding [1]; no binding [2].
